The data set is described as follows: amyloid nucleation score (Sup35N fusion, yeast selection) (log enrichment); library NNK2; higher = more nucleation; inactive = no reads after selection. The method in brief: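 Peptides of 20 random codons fused to Sup35N were expressed in psi-negative yeast, induced 24 hours with 100 μM copper sulfate, then grown 7 days at 30°C on medium lacking adenine and uracil. Input and output plasmid inserts were Illumina-sequenced. Nucleation score is the DiMSum log enrichment of output over input reads, centred on the mode score of non-aggregating sequences, excluding sequences with under 100 input reads. Random libraries had three technical output replicates.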

± gives the uncertainty stated by the source.

Consider 141 substances from the supplement of paper PMC12042874.

As to ILLFELNAPFVEYSNAFG, the amyloid nucleation score is 3 ± 0.045.

Substance LWVIISCSDYLNWLNRGMNE came in with an amyloid nucleation score of 5.45 ± 0.056.

LSKLNGGSSVTSV displayed an amyloid nucleation score of 0.665 ± 0.2.

Substance FVTFFLSSHWVIVLDAYSLN had an amyloid nucleation score of -0.61 ± 1.1.

For ELKFSINWHW, the amyloid nucleation score amounted to 4.4 ± 0.083.

Consider LSLNG, for which the amyloid nucleation score was -0.955 ± 0.39.

KGVCWVTICELHDW displayed an amyloid nucleation score of -0.305 ± 0.48.

The substance GRLNPPLLLRIRSVSYAIPV yielded an amyloid nucleation score of 0.783 ± 0.58.

With FTWHLLYTNDCPLVIYMMEL, the amyloid nucleation score was -0.403 ± 0.74.

Consider LMYVGFTRMRKKINRKVYLV, for which the amyloid nucleation score stood at 3.19 ± 0.1.

In the case of SLEGYKLDAQRRFKMVCEMV, the amyloid nucleation score is -0.267 ± 0.33.

In turn, YDVRMSKMFAYTLSSEC showed an amyloid nucleation score of 0.203 ± 0.53.

The substance LFRGRMPFPRDSEYLRNRWK showed an amyloid nucleation score of -0.287 ± 0.28.

In turn, DTTALHRVTASTLGHRFSLG gave an amyloid nucleation score of 0.58 ± 0.56.

Regarding NVHYLGLVCRCALVFGTNML, the amyloid nucleation score result is “inactive”.

The substance MVNYDDMANGS had an amyloid nucleation score of 0.465 ± 0.8.

LRFCYKEATV returned an amyloid nucleation score of 0.016 ± 0.65.

The substance IVGAIRSKILGTGQTRVIWG displayed an amyloid nucleation score of 0.477 ± 0.65.

The substance GVHTLWNRMKWPIENRVYGS had an amyloid nucleation score of 1.59 ± 0.3.

FIFVSNKYTNGIFAILGT gave an amyloid nucleation score of 1.98 ± 0.13.

For the substance YQLNWVKAASCSISLYFTFL, the amyloid nucleation score was 3.87 ± 0.082.

Take IEDSEREMACINPGFSFVVV: the amyloid nucleation score is -1.83 ± 1.1.

As to GLSNFYVFAFYRVFFSLIWA, the amyloid nucleation score turned out to be 3.3 ± 0.067.

LIYPANVWFGFYAEAGEVAQ: the amyloid nucleation score was found to be 4.21 ± 0.044.

KRFGNFMTLRTLRVT gave an amyloid nucleation score of 1.42 ± 0.14.

Consider IVLSSYLIWLD, for which the amyloid nucleation score result was “inactive”.

In the case of NIYNPVD, the amyloid nucleation score was -0.196 ± 1.1.

With DYGNLYL, the amyloid nucleation score is -0.291 ± 1.1.

As for YVSSNWRNFRSVSQWWMLHV, the amyloid nucleation score stood at 1.57 ± 0.1.

VFSFRGLFGFIPMVPYWYAI: the amyloid nucleation score result is “inactive”.

On to SVDVKPVTQMTGTMVESTGS, for which the amyloid nucleation score amounted to 1.17 ± 0.28.

Substance HLYLPMYGIMFS came in with an amyloid nucleation score of 1.27 ± 0.15.

On to TMGKCITIGPAFIHNT, for which the amyloid nucleation score turned out to be 1.51 ± 0.32.

In the case of RAVRDLLVLNIINVAVTSIN, the amyloid nucleation score worked out at 7.495 ± 0.043.

For the substance RRKSGLEFLLISNYIILGFR, the amyloid nucleation score entry is “inactive”.

Turning to CPFSYEPNFPLIGRGNFAIW, the amyloid nucleation score is -0.987 ± 1.

Turning to FRVMSRVWTTEESAFLKLLC, the amyloid nucleation score was -0.94 ± 0.63.

CFKMIFDQGSPKMRMHHIGV gave an amyloid nucleation score of 0.234 ± 0.54.

As for NIFQGAICYQTYGGVFPYFL, the amyloid nucleation score turned out to be 6.151 ± 0.042.

In turn, LNPRNQCERRCFSVSGLKWY displayed an amyloid nucleation score of -0.899 ± 0.64.

Substance MGRLNVYLNVRLISKVIGIQ displayed an amyloid nucleation score of 3.63 ± 0.053.

SCHSFRFKPNGFVL yielded an amyloid nucleation score of -0.575 ± 0.49.

In turn, DLRRDQRATTERGRVPVVKH gave an amyloid nucleation score of 4.817 ± 0.045.

Regarding IMCCTRLLNSFSAITIVHIA, the amyloid nucleation score was -0.03 ± 0.43.

For the substance VRARYASLCHGIAAEGIVGV, the amyloid nucleation score stood at 0.506 ± 0.28.

As for HYSFRSIAGLQAVCGDNCMD, the amyloid nucleation score turned out to be 0.427 ± 0.52.

Regarding DKPVSTH, the amyloid nucleation score is -0.861 ± 1.

ESAAER yielded an amyloid nucleation score of -0.186 ± 0.76.

For TYLFYWSLGQRCMIF, the amyloid nucleation score entry is “inactive”.

As for QFSLAVSTLSL, the amyloid nucleation score came to 1.48 ± 0.27.

As for VWSNLSVRLRHI, the amyloid nucleation score was -0.196 ± 1.

As to EAWADGSIMYSYTRPDGDKV, the amyloid nucleation score is 0.421 ± 0.24.

For the substance SECKSRRYIWWHIWYDLS, the amyloid nucleation score came to 0.49 ± 0.12.

For the substance KRIPSSWWFVGLVGITWRPA, the amyloid nucleation score stood at 0.826 ± 0.29.

Consider WFMFDFFYF, for which the amyloid nucleation score result was “inactive”.

Take LAQNEHTLVFILLTNGKS: the amyloid nucleation score was 3.18 ± 0.046.

On to SCVYLDCLF, for which the amyloid nucleation score is 0.25 ± 0.6.

Substance YLSLYGNGC had an amyloid nucleation score of -0.627 ± 1.1.

Substance ARTICTFRHMSGIGAMGLDC registered an amyloid nucleation score of 0.289 ± 0.8.

On to CCPEHRNRAGNNDFWSARTQ, for which the amyloid nucleation score came to 0.392 ± 0.57.

With KCWYRH, the amyloid nucleation score was 1.39 ± 0.1.

YDPDFSGYCYFAIILYIIFS showed an amyloid nucleation score of -1.5 ± 0.62.

FEKISSAFFGNYGLFMNWLS yielded an amyloid nucleation score of -0.441 ± 0.78.

With FFYEFFSHICLGQERGWPRV, the amyloid nucleation score entry is “inactive”.

VCFVICDSPSFYV came in with an amyloid nucleation score of 7.901 ± 0.044.

MLQPPPNESVSIILLKGSPA showed an amyloid nucleation score of 5.165 ± 0.042.

In the case of KLSSRYIYLYSRYEPSS, the amyloid nucleation score entry was “inactive”.

Substance LRYNIMWKQHNATAYDEYRA returned an amyloid nucleation score of 3.65 ± 0.12.

LGYCSSSILCPCCHKILFDA registered an amyloid nucleation score of -0.521 ± 0.21.

On to TALFGISMVCSGRG, for which the amyloid nucleation score was -0.583 ± 1.1.

As for YTFWNVLC, the amyloid nucleation score came out at 3.59 ± 0.084.

As to CPIRMLSKNGCSTHSFNMAW, the amyloid nucleation score stood at 0.241 ± 0.8.

On to GNADRF, for which the amyloid nucleation score is -1.12 ± 0.63.

MFSFCRGSANSRLAQKDIVN showed an amyloid nucleation score of 0.023 ± 0.3.

FIFGCTCNILFICASSRFLQ had an amyloid nucleation score of 2.92 ± 0.11.

Take NCWYTFTL: the amyloid nucleation score turned out to be 1.45 ± 0.12.

For VGLGVRVEVLTMSFTILQSV, the amyloid nucleation score worked out at 3.36 ± 0.078.

FRLRVRTVRQNCLYHWGSVE: the amyloid nucleation score is 0.024 ± 0.56.

The substance TMGYDSSTVTVFGGSMFLRL had an amyloid nucleation score of 2.56 ± 0.2.

Substance LCVKVFRRFYRHVHIVHVSQ returned an amyloid nucleation score of -0.337 ± 0.4.

With ACNNRMISGIRTTDCYIYRP, the amyloid nucleation score was -0.261 ± 0.33.

GNRIPVTRGLVKDRSKLVGV gave an amyloid nucleation score of 0.007 ± 1.1.

SSWKCIIYNPQCEVPTGEQE gave an amyloid nucleation score of -0.289 ± 0.49.

NLKRVKRMIPYYTTQ registered an amyloid nucleation score of -0.343 ± 0.33.

Take SFCSTGTEDTT: the amyloid nucleation score was -0.213 ± 0.26.

For GILYLSLYDFCV, the amyloid nucleation score is -0.763 ± 1.

For the substance GALTQSVLIYRH, the amyloid nucleation score came to 2.12 ± 0.13.

As to CCELAPWFFTI, the amyloid nucleation score is 0.068 ± 0.32.

For the substance SKIGHD, the amyloid nucleation score stood at 0.545 ± 0.57.

Substance RVRGGEYRRSYTKWWEGCGS returned an amyloid nucleation score of 3.19 ± 0.091.

For the substance GMGQQEVPNWGMATGCGYEE, the amyloid nucleation score was determined as 0.081 ± 1.1.

On to TCGDGPATYTQT, for which the amyloid nucleation score was found to be 0.132 ± 0.38.

For the substance VVCLPVISLCWIFLHIIF, the amyloid nucleation score result is “inactive”.

MSSHSTCRGVGINGLMVFVL returned an amyloid nucleation score of 8.073 ± 0.057.

NVTVAWFVNLSPWF displayed an amyloid nucleation score of 7.288 ± 0.045.

Turning to FLYRVNAKWVWLRGLSLWQW, the amyloid nucleation score came to 0.252 ± 0.23.

WLIRL: the amyloid nucleation score entry is “inactive”.

Substance ECVRCC displayed an amyloid nucleation score of -1.11 ± 0.76.

On to YYGILEVG, for which the amyloid nucleation score entry was “inactive”.

In turn, EKVGS showed an amyloid nucleation score of -0.097 ± 1.1.

GIIWT: the amyloid nucleation score was -0.078 ± 0.26.

In turn, WPWVSGPVKQSRCFRIDLSM yielded an amyloid nucleation score of 0.459 ± 0.57.

For SYLSCGQKKHWCWPKVDSFR, the amyloid nucleation score is -0.444 ± 0.42.

Regarding SLMVQWSTILAHIRHFMTA, the amyloid nucleation score turned out to be 0.073 ± 0.63.

In the case of DSSVQRRLS, the amyloid nucleation score amounted to 0.121 ± 0.56.

IPAKGRNSHSVSCFF had an amyloid nucleation score of -1.07 ± 0.63.

Substance LNVTSLLIVRLRCVFLHPTD had an amyloid nucleation score of 2.15 ± 0.44.

With RSKQRCGTTDSPLAMVSKRV, the amyloid nucleation score is 1.05 ± 0.31.

With NVDRFKVINLS, the amyloid nucleation score result was “inactive”.

For the substance TFHFQTRLCYLALYDHAIYA, the amyloid nucleation score was -0.242 ± 0.79.

Turning to GIIRC, the amyloid nucleation score was found to be 0.209 ± 0.5.

In turn, LPTIGVWLTRPRVCFLSYSV yielded an amyloid nucleation score of 0.045 ± 0.63.

For LRVWVTAFFFSVMMCEQMFQ, the amyloid nucleation score entry is “inactive”.

TDKKACNLNDANVS displayed an amyloid nucleation score of -0.014 ± 0.76.

Consider ACQAFTCW, for which the amyloid nucleation score was determined as 0.967 ± 0.26.

Take NLNMVTWVRQTHI: the amyloid nucleation score was -0.726 ± 0.32.

NRVTCYSMDRNIM displayed an amyloid nucleation score of -0.776 ± 1.1.

Turning to IPDHFRTSSAYRLGDRHGG, the amyloid nucleation score came to 0.103 ± 0.43.

For YRSVVDA, the amyloid nucleation score was determined as 0.077 ± 0.54.

In turn, PWIAGCNMRTNWFNILNCPV came in with an amyloid nucleation score of -0.583 ± 0.38.

FVVQCY showed an amyloid nucleation score of 0.998 ± 0.52.

Consider NGSRSSMSGARERYCYIRVS, for which the amyloid nucleation score result was “inactive”.

For LHSSSHVGGYSVGSRSFIHG, the amyloid nucleation score was 0.294 ± 1.1.

For CSLLVTLWE, the amyloid nucleation score is 0.554 ± 0.23.

With VRNGWCTSWNSTAN, the amyloid nucleation score was found to be 0.974 ± 0.52.

Consider MVSSIGILASWYTSIVWFGY, for which the amyloid nucleation score is -0.191 ± 1.1.

Substance EFCIHVSVLINPRGSNYDKW displayed an amyloid nucleation score of -0.487 ± 1.1.

CPNLNTFTLFPELGNLYLHR showed an amyloid nucleation score of 0.329 ± 0.8.

Regarding QYLVRYLYAITLK, the amyloid nucleation score was -0.603 ± 1.

GEGGANVMCRVAGIIR yielded an amyloid nucleation score of 1.17 ± 0.17.

As for NQSWRVVRQVCVEETRMMCG, the amyloid nucleation score is 0.89 ± 0.23.

As for MIWTKRLDDHELCLGSRSML, the amyloid nucleation score is -0.739 ± 0.79.

Substance SYPAKDRNLYDCYLCPVSYL came in with an amyloid nucleation score of -1.16 ± 0.61.

TCYRSDRPIRRRVAFALTEG displayed an amyloid nucleation score of 1.04 ± 0.41.

WGESHWVASFFKFVRGSWDG came in with an amyloid nucleation score of -0.112 ± 0.54.

For WWKAGFSCDTEMSRRPHTLV, the amyloid nucleation score was -0.168 ± 1.1.

ELILFITYTCIFWADCGRLY yielded an amyloid nucleation score of -2.12 ± 1.1.

Substance YVVKIREIMVCSLVLDLRQR came in with an amyloid nucleation score of 2.57 ± 0.069.

Substance MPYALIR gave an amyloid nucleation score of -0.821 ± 0.35.

Turning to RHRSNCMRRSTVSVGNVRES, the amyloid nucleation score was 0.427 ± 0.23.

As to YCQSIVFCSI, the amyloid nucleation score stood at 3.84 ± 0.086.
